These results are taken from publication doi:10.1101/2024.12.11.628028 (bioRxiv, 2024).

The series concerns the molecule itself. The series can be described thus: crystal structure.

B1: Nicotinamide phosphoribosyltransferase (NAMPT), human, with N terminal His-tag (enzyme)
chain: MNPAAEAEFNILLATDSYKVTHYKQYPPNTSKVYSYFECREKKTENSKLRKVKYEETVFYGLQYILNKYLKGKVVTKEKIQEAKDVYKEHFQDDVFNEKGWNYILEKYDGHLPIEIKAVPEGFVIPRGNVLFTVENTDPECYWLTNWIETILVQSWYPITVATNSREQKKILAKYLLETSGNLDGLEYKLHDFGYRGVSSQETAGIGASAHLVNFKGTDTVAGLALIKKYYGTKDPVPGYSVPAAEHSTITAWGKDHEKDAFEHIVTQFSSVPVSVVSDSYDIYNACEKIWGEDLRHLIVSRSTQAPLIIRPDSGNPLDTVLKVLEILGKKFPVTENSKGYKLLPPYLRVIQGDGVDINTLQEIVEGMKQKMWSIENIAFGSGGGLLQKLTRDLLNCSFKCSYVVTNGLGINVFKDPVADPNKRSKKGRLSLHRTPAGNFVTLEEGKGDLEEYGQDLLHTVFKNGKVTKSYSFDEIRKNAQLNIELEAAHH
Regarding B1, the binding result is “binds”.
